Test results from publication PMC3376194.

Substrate: CCCCC/C=C\C/C=C\C/C=C\C/C=C\CCCC(=O)O
Test: cells, lysate or membranes named
Conditions: other: R53H, 0.025% Tween 20, 37 °C

B1: PGHS-1 R53H variant (Homo sapiens; R53H) (protein)
chain: ADPGAPTPVNPCCYYPCQHQGICVRFGLDHYQCDCTRTGYSGPNCTIPGLWTWLRNSLRPSPSFTHFLLTHGRWFWEFVNATFIREMLMRLVLTVRSNLIPSPPTYNSAHDYISWESFSNVSYYTRILPSVPKDCPTPMGTKGKKQLPDAQLLARRFLLRRKFIPDPQGTNLMFAFFAQHFTHQFFKTSGKMGPGFTKALGHGVDLGHIYGDNLERQYQLRLFKDGKLKYQVLDGEMYPPSVEEAPVLMHYPRGIPPQSQMAVGQEVFGLLPGLMLYATLWLREHNRVCDLLKAEHPTWGDEQLFQTTRLILIGETIKIVIEEYVQQLSGYFLQLKFDPELLFGVQFQYRNRIAMEFNHLYHWHPLMPDSFKVGSQEYSYEQFLFNTSMLVDYGVEALVDAFSRQIAGRIGGGRNMDHHILHVAVDVIRESREMRLQPFNEYRKRFGMKPYTSFQELVGEKEMAAELEELYGDIDALEFYPGLLLEKCHPNSIFGESMIEIGAPFSLKGLLGNPICSPEYWKPSTFGGEVGFNIVKTATLKKLVCLNTKTCPYVSFRVPDASQDDGPAVERPSTEL
- Km: 1.9 ± 0.2 µM
